Results: patent US20100196385A1 (AstraZeneca / MedImmune, published 2010)

T1: human Dll1 (human, UniProt O00548 18-723)
T1 construct: whole, on cells
T1 sequence (looked up): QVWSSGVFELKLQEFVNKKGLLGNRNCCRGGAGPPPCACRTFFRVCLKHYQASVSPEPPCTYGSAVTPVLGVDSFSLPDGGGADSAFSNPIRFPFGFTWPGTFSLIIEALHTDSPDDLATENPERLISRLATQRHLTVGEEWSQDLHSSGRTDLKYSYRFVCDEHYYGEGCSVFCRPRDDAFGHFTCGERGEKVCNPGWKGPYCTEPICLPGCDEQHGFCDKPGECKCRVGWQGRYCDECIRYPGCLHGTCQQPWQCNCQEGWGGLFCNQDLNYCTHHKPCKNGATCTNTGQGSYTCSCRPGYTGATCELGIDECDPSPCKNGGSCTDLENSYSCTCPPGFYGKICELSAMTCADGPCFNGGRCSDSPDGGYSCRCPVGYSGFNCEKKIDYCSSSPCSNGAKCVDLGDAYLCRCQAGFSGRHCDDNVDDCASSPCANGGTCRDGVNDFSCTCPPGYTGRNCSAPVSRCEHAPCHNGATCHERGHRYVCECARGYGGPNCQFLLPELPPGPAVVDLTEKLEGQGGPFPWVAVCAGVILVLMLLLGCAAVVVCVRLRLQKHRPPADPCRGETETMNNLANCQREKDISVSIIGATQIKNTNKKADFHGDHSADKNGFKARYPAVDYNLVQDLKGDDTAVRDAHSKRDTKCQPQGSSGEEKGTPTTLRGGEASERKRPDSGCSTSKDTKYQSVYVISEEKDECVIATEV

B1: 17F3 (antibody, IgG2, V domains shown)
VH: QVQLVQSGAEVKKPGASVKVSCKASGYTFTNYGISWVRQAPGQGLEWMGWINAYNGNTNYAQNLQGRVTMTTDTSTNTAYMELRSLRSDDTAVYYCARVAPAAFFDYWDQGTLVTVSS
VL: SYELTQPPSVSVSPGQTASITCSGDKLGDKYVCWYQQKPGQSPVLVIYQDNKRPSGIPERFSGSNSGNTATLIISGTQAMDEADYYCQAWDSSTVFGGGTKLTVL
notes: Fully human; also used where no isotype is printed
B2: 4B3 (antibody, IgG4, V domains shown)
VH: QVQLVQSGAEVRKSGASVKVSCKASGYSFTTYDINWVRQATGQGLEWMGWMNPNSGYTDYAQKFQGRVTLTRNMSIDTAYMELSSLRSEDTAVYYCARAYYYDSSAYYLFDYWGQGTLVTVSS
VL: DIQMTQSPSSLSASVGDRVTITCRASQGISNYLAWFQQKPGKAPKSLIYAASSLQSGVPSKFSGSGSGTDFTLTISSLQPEDFATYFCQQYISYPLTFGGGTKVEI
notes: as for B1
B3: 12A1 (antibody, IgG4, V domains shown)
VH: QVQLVQSGAEVKRPGASVKVSCKASGYTFTSYGITWVRQAPGQGLEYMGWISTYNGNTDYAQKFQGRVTMTADISTSTAYMELRSLRSDDTAVYYCARERGSYFDYWGQGTLVTVSS
VL: SYELTQPPSVSVSPGQTARITCSGDTLPKKYAYWYQQKSGQAPVLVIYEDIKRPSGIPERFSGSSSGTMATLTISGAQVEDEADYYCFSTDSGGNHKFGGGTKLTVL
notes: as for B1

Assays:
[1] = biological target: DLL4 extracellular domain (R&D systems, catalog #1506-D4/CF) (UniProt Q9NR61 27-529, limits assumed); assay: cell-based or functional assay
human Dll1 [2] = biological target: T1, human Dll1; assay: FACS, 15 µg/ml, 293T cells with human Dll1
Experimental: (§1) The ability of the purified antibodies to bind to human Jagged1 and Dll1 was determined by FACS analysis. […] Cells were resuspended in PBS containing 2% FCS and seeded at 50000 cells/well into V-bottomed plates. Anti-DLL4 antibodies diluted in PBS containing 2% FCS were added at a final concentration of 5 or 15 μg/ml and plates were incubated for 1 h at 4° C. […] Data was analyzed by comparing the shift in geometric mean fluorescence in the mock-transfected cells to that observed in the Jagged1- or Dll1-transfected cells and is shown in Tables 16 and 17.

human Jagged1 [3] = biological target: T2, human Jagged1 (human, UniProt P78504 34-1218); assay: FACS, 5 µg/ml, 293T cells with human Jagged1
T2 construct: whole, on cells
Experimental: as §1

human Dll1 [4] = biological target: T1, human Dll1; assay: FACS, 15 µg/ml, 293T cells with human Dll1 vs mock
Experimental: as §1

human Jagged1 [5] = biological target: T2, human Jagged1; assay: FACS, 5 µg/ml, 293T cells with human Jagged1 vs mock
Experimental: as §1

full length human DLL4 [6] = biological target: T3, full length human DLL4 (human, UniProt Q9NR61 27-685); assay: FMAT, hybridoma supernatant, 293T cells with human DLL4
T3 construct: whole, on cells; also called native DLL4 expressed in HEK293 cells
Experimental: (§2) Cells diluted in PBS containing 2% FBS were seeded at a density of 3000 expressing and 15000 mock transfected cells per well in 384 well plates (Corning Costar, catalog #3712). Immediately after plating, 15 or 20 μl/well of hybridoma supernatants and 10 μl/well of secondary antibody (Goat anti-human IgG Fc Cy5, final concentration 750 ng/ml) were added and plates incubated for 3 h at room temperature prior to reading the fluorescence on the FMAT 8200 instrument (Applied Biosystems). The binding of human Notch1/Fc chimera (R&D systems, catalog #3647-TK), diluted 1:2 from 2.86 μg/ml was used as a positive control for DLL4 and human Notch3/Fc chimera diluted from 10 μg/ml was used a positive control for binding to Jagged1. Results for 12 hybridoma supernatants showing binding of hybridoma supernatants to human/cynomolgus monkey DLL4 and human Jagged are shown in Table 3.

human Jagged1 [7] = biological target: T2, human Jagged1; assay: FMAT, hybridoma supernatant, 293T cells with human Jagged1
Experimental: as §2

full length human DLL4 [8] = biological target: T3, full length human DLL4; assay: FMAT competition, supernatant vs Alexa-647 human Notch1/Fc, 293T cells with human DLL4
Experimental: Transfected and untransfected 239T cells were reconstituted in PBS containing 2% FCS and 5000 transfected and 17500 non-transfected cells were plated in 20 μl into wells of a 384-well tissue culture plate (Corning Costar, catalog #3712). Subsequently, 20 μl of hybridoma supernatant was added and plates were incubated at 4° C. for 1 h, at which time 20 μl of Alexa-647 labeled human Notch1/Fc was added at a final concentration of 6.7 ng/ml. After a further 3 h incubation at 4° C., the amount of bound Notch1/Fc was determined by reading the fluorescence in each well using an FMAT 8200 instrument (Applied Biosystems). Results are expressed as % inhibitions with the minimum inhibition in the assay being determined by the effects of non-DLL4 binding supernatants prepared in a similar way as described in example 2, and the maximum inhibition being defined as the signal obtained in the presence of a saturating concentration of unlabeled Notch1/Fc. N.T.=not tested

full length human DLL4 [9] = biological target: T3, full length human DLL4; assay: FMAT competition, purified antibody vs Alexa-647 human Notch1/Fc, 293T cells with human DLL4
Experimental: To discriminate between the purified antibodies based upon their ability to prevent the interaction between full-length recombinant DLL4 and soluble Notch1/Fc, the following assays were performed. Transfected and untransfected 239T cells were reconstituted in PBS containing 2% FCS and 5000 transfected and 17500 non-transfected cells were plated in 30 μl into wells of a 384-well tissue culture plate (Corning Costar, catalog #3712). Subsequently, 30 μl of purified antibodies, serial diluted from 5 μg/ml hybridoma supernatant was added and plates were incubated at 4° C. for 1 h, at which time 20 μl of 100 ng/ml Alexa-647 labeled human Notch1/Fc was added. After a further 3 h incubation at 4° C., the amount of bound Notch1/Fc was determined by reading the fluorescence in each well using an FMAT 8200 instrument (Applied Biosystems).

T2 sequence (P78504 34-1218): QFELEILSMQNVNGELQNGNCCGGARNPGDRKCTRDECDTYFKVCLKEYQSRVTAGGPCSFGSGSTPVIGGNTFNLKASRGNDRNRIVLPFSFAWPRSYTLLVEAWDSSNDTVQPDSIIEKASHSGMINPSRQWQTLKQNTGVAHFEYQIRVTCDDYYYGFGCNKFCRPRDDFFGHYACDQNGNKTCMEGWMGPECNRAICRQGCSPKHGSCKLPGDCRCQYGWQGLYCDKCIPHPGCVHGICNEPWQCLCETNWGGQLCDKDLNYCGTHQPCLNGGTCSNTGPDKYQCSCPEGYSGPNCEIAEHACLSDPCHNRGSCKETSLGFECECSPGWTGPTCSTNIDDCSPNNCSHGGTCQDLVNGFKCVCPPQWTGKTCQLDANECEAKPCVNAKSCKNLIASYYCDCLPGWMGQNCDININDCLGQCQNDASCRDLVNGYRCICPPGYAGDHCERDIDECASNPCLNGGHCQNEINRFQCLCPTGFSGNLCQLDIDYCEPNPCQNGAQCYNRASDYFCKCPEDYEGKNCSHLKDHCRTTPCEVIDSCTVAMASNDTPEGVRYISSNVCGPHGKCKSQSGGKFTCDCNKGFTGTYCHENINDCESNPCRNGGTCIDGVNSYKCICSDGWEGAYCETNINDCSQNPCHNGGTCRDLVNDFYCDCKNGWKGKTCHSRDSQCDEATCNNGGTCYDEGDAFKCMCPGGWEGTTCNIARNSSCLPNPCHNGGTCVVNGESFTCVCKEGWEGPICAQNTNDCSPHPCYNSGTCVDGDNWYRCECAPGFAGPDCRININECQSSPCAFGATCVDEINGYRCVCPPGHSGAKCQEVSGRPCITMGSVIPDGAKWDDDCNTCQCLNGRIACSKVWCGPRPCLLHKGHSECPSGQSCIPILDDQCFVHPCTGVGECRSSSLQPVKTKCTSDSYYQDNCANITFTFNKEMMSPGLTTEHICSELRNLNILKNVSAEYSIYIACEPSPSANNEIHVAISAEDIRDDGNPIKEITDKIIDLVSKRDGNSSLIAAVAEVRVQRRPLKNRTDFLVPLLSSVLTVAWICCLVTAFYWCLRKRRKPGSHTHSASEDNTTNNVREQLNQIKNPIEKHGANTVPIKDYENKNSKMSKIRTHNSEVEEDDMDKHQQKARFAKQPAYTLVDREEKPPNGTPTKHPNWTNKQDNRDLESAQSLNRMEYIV
Chain of DLL4 extracellular domain (R&D systems, catalog #1506-D4/CF) (Q9NR61 27-529 limits assumed): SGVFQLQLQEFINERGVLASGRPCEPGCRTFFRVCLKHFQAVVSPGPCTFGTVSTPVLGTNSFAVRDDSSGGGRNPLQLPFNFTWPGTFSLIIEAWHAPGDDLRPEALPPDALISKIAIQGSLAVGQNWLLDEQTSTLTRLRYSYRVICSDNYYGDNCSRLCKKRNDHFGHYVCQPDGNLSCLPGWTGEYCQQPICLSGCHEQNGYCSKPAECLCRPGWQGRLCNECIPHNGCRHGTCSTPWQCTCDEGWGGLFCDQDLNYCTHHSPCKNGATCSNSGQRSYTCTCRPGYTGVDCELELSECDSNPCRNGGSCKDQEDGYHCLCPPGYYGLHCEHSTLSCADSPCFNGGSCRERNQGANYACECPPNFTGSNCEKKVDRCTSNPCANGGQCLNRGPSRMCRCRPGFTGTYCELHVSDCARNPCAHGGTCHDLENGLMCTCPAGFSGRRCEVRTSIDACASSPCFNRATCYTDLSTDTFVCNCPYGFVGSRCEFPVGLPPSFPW
T3 sequence (Q9NR61 27-685): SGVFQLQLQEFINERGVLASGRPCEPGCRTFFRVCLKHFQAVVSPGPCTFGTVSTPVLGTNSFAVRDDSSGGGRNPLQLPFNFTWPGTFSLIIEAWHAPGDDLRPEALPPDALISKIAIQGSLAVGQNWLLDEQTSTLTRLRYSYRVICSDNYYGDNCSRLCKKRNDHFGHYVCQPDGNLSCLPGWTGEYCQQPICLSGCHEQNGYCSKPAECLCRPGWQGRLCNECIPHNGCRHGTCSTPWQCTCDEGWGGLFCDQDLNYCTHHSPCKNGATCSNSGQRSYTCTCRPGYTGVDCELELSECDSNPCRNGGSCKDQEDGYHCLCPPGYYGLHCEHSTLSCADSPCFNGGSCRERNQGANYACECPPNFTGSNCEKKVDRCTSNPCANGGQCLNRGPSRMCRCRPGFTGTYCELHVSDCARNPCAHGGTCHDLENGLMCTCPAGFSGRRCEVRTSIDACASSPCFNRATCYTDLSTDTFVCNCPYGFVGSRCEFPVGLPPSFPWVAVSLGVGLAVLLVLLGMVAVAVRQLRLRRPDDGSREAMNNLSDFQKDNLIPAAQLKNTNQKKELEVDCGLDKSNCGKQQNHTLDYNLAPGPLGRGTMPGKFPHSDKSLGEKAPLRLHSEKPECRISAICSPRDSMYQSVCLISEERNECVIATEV

Binder | % inhibition 1 µg/ml, AVERAGE (HUVEC proliferation on coated DLL4) [1] [%] | % inhibition 1 µg/ml, N = 1 (HUVEC proliferation on coated DLL4) [1] [%] | % inhibition 1 µg/ml, N = 2 (HUVEC proliferation on coated DLL4) [1] [%] | % inhibition 10 µg/ml, AVERAGE (HUVEC proliferation on coated DLL4) [1] [%] | % inhibition 10 µg/ml, N = 1 (HUVEC proliferation on coated DLL4) [1] [%] | % inhibition 10 µg/ml, N = 2 (HUVEC proliferation on coated DLL4) [1] [%] | Dll1/293T X Geo mean (human Dll1 [2]) | Jagged1/293T X Geo mean (human Jagged1 [3]) | Dll1/mock ratio (human Dll1 [4]) | Jagged1/mock ratio (human Jagged1 [5]) | Count (full length human DLL4 [6]) | FL1 (full length human DLL4 [6]) | FL1 x count (full length human DLL4 [6]) | Count (human Jagged1 [7]) | FL1 (human Jagged1 [7]) | FL1 x count (human Jagged1 [7]) | % inhibition n = 2 (full length human DLL4 [8]) [%] | % inhibition n = 3 (full length human DLL4 [8]) [%] | Mean % inhibition (full length human DLL4 [8]) [%] | % inhibition at 0.020 nM (full length human DLL4 [9]) [%] | also measured
B1 | 30 | 24 | 35 | 52 | 48 | 56 | 47 | 16.3 | 1.14 | 1.08 | 219 | 11300 | 2.47e+06 | 30 | 1440 | 43100 | 108 | 131 | 120 | 14 | % inhibition at 0.070 nM (full length human DLL4 [9]): 25%; % inhibition at 0.21 nM (full length human DLL4 [9]): 14%; % inhibition at 0.62 nM (full length human DLL4 [9]): 29%; % inhibition at 1.9 nM (full length human DLL4 [9]): 69%; % inhibition at 5.6 nM (full length human DLL4 [9]): 121%; % inhibition at 16.7 nM (full length human DLL4 [9]): 115%; IC50 (full length human DLL4 [9]): 1.81 nM
B2 | 31 | 20 | 41 | 44 | 38 | 49 | 30.6 | 18.7 | 1.17 | 1.04 | 206 | 11000 | 2.27e+06 | 2 | 4720 | 9450 | 145 | 147 | 133 | -1 | % inhibition n = 1 (full length human DLL4 [8]): 106%; % inhibition at 0.070 nM (full length human DLL4 [9]): 5%; % inhibition at 0.21 nM (full length human DLL4 [9]): -3%; % inhibition at 0.62 nM (full length human DLL4 [9]): 20%; % inhibition at 1.9 nM (full length human DLL4 [9]): 40%; % inhibition at 5.6 nM (full length human DLL4 [9]): 89%; % inhibition at 16.7 nM (full length human DLL4 [9]): 117%; IC50 (full length human DLL4 [9]): 3.33 nM
B3 | 56 | 50 | 62 | 74 | 62 | 85 | 47 | 14.4 | 1.12 | 1.11 | 179 | 9520 | 1.76e+06 | 25 | 988 | 24700 | 147 | 144 | 131 | 6 | % inhibition n = 1 (full length human DLL4 [8]): 103%; % inhibition at 0.070 nM (full length human DLL4 [9]): -18%; % inhibition at 0.21 nM (full length human DLL4 [9]): 9%; % inhibition at 0.62 nM (full length human DLL4 [9]): 15%; % inhibition at 1.9 nM (full length human DLL4 [9]): 88%; % inhibition at 5.6 nM (full length human DLL4 [9]): 119%; % inhibition at 16.7 nM (full length human DLL4 [9]): 101%; IC50 (full length human DLL4 [9]): 1.48 nM
